Results as given in the RNAGym collection of RNA variant scans (doi:10.7554/elife.80360).

B1: CPEB3 Ribozyme (parent)
chain: GGGGGCCACAGCAGAAGCGUUCACGUCGCGGCCCCUGUCAGAUUCUGGUGAAUCUGCGAAUUCUGCUGU

Variants of: B1
Assay: self-cleavage, relative activity (ratio to wild type); higher = more cleavage; co-transcriptional

Point of comparison: C9U A42C, self-cleavage 1.03. Against it:
- A10C G48A — lower, 1.02
- A10C A16U — lower, 0.818
- A10C A16G — lower, 0.967
- A10C A16C — lower, 0.252
- A10C U49C — higher, 1.04
- A10C U49A — lower, 1.02
- C9U U36G — lower, 0.214
- C9U U55C — lower, 1.02
- C9U U55G — lower, 0.953
- C9U U55A — lower, 0.932
- C9G C63A — lower, 0.909
- C9G C63U — lower, 0.973
- C9G U46A — the same, 1.03
- C9G U53C — lower, 0.956
- C9G U53G — lower, 0.961
- C9G G58C — lower, 0.984
- C9G G58U — higher, 1.04
- C9U G17A — lower, 0.817
- C9G G25C — lower, 0.108
- C9G G25U — lower, 0.207
- C9G G25A — lower, 0.216
- C9U A15C — lower, 0.989
- A10C C18G — lower, 0.196
- C9U C29G — lower, 0.923
- C9U C29A — lower, 0.922
- C9G A15C — lower, 0.819
- A10C A59U — lower, 0.82
- C9G U43G — lower, 0.955
- C9G U43C — lower, 0.996
- C9G U43A — lower, 1.02
- A10C G37C — lower, 0.23
- A10C G37U — lower, 0.244
- A10C G11U — lower, 0.913
- A10C G11A — lower, 0.887
- A10C A52G — lower, 0.988
- C9U U53G — lower, 0.984
- C9U U53A — lower, 0.961
- A10C A60C — lower, 0.28
- A10C A60G — lower, 0.853
- A10C A60U — lower, 0.484
- C9U G37A — lower, 0.364
- C9U A59G — lower, 0.986
- C9G A16U — lower, 0.887
- C9G A16G — lower, 0.957
- A10C U20A — lower, 0.205
- A10C U20G — lower, 0.0821
- A10C U20C — lower, 0.286
- A10C C35A — lower, 0.325
- A10C C35U — lower, 0.992
- A10C C35G — lower, 0.631
- C9U U61G — lower, 0.985
- C9U U61A — lower, 1
- C9G C29U — lower, 0.897
- C9G C29A — lower, 0.84
- C9G C29G — lower, 0.695
- A10C G28U — lower, 0.12
- A10C G28A — lower, 0.125
- C9G C39A — lower, 0.912
- C9G C39U — lower, 0.878
- C9G C39G — lower, 0.981
- C9G G14C — lower, 0.565
- C9G G14U — lower, 0.756
- A10C A23C — lower, 0.938
- A10C A23U — lower, 0.983
- C9U G31C — lower, 0.38
- C9U G31U — lower, 0.977
- C9U G31A — lower, 1
- C9U C57A — lower, 0.32
- C9U C57U — lower, 0.38
- C9U G65U — lower, 0.845
- C9U G65C — lower, 0.802
- C9U G48A — the same, 1.03
- C9U G48U — the same, 1.03
- C9G A60U — lower, 0.486
- C9G A60C — lower, 0.385
- C9G U36C — lower, 1.02
- C9G U36G — lower, 0.245
- C9G U64A — lower, 0.884
- C9G U64C — lower, 0.864
- C9G G48C — lower, 0.99
- C9G G48A — lower, 1.01
- A10C G65A — lower, 0.798
- A10C G65U — lower, 0.655
- A10C G65C — lower, 0.637
- C9U C63U — lower, 0.982
- C9U C63G — lower, 0.88
- C9U C63A — lower, 0.968
- C9U G56C — lower, 0.959
- C9U G56A — lower, 0.992
- A10C G31A — lower, 0.968
- A10C G31U — lower, 0.913
- A10C U44C — lower, 0.92
- A10C U44A — lower, 0.959
- C9U G25C — lower, 0.146
- C9U G25U — lower, 0.192
- C9G C57G — lower, 0.334
- C9G C57A — lower, 0.402
- C9U G30U — lower, 0.837
- A10C G56C — lower, 0.772
- C9U G11C — lower, 0.927
- C9U G11A — lower, 0.971
- C9U A42U — lower, 0.997
- C9U A42G — lower, 0.96
- C9G A40G — lower, 0.968
- C9U C35U — lower, 0.982
- C9U C35A — lower, 0.342
- C9U C35G — lower, 0.76
- C9U G68A — higher, 1.05
- C9U G68U — lower, 1.02
- C9U C22U — lower, 0.403
- A10C C34U — lower, 0.986
- A10C C34A — lower, 0.981
- C9U C66A — lower, 0.968
- C9U C66U — higher, 1.05
- C9G G17C — lower, 0.176
- C9G U20G — lower, 0.212
- C9G U20A — lower, 0.0617
- C9U C27U — lower, 0.788
- C9U C27A — lower, 0.891
- A10C U26C — lower, 1.02
- A10C U26A — lower, 0.943
- A10C U26G — lower, 0.885
- C9G U61A — lower, 1.01
- C9G U61C — lower, 0.83
- C9U U43A — lower, 0.971
- C9U U43C — lower, 1.02
- A10C C39G — lower, 0.987
- A10C C39A — lower, 0.861
- C9G A13C — lower, 0.845
- C9G A13G — lower, 0.922
- C9U C33U — lower, 0.996
- C9U C33A — lower, 0.994
- C9U U49A — lower, 0.99
- C9U U49C — lower, 1.01
- C9U U49G — lower, 0.957
- A10C A51C — lower, 0.978
- A10C A51U — lower, 1.02
- A10C A51G — higher, 1.06
- C9G A51G — lower, 0.993
- C9G A51U — lower, 0.976
- A10C G50A — lower, 0.971
- C9A U69C — higher, 1.08
- C9A U69G — higher, 1.07
- C9A U64G — lower, 0.951
- C9A U64C — lower, 0.938
- C9G C45G — lower, 0.996
- C9G U67C — lower, 0.976
- C9G U67G — higher, 1.05
- A10C G25C — lower, 0.103
- A10C G25A — lower, 0.212
- C9G C54A — lower, 0.931
- C9G C54U — higher, 1.05
- C9U A60C — lower, 0.303
- C9U A60G — lower, 0.983
- C9G U55C — lower, 0.877
- C9G U55G — lower, 0.865
- C9G G19A — lower, 0.106
- C9G G37U — lower, 0.323
- C9G G50C — lower, 1.01
- C9G U44A — lower, 0.956
- C9G U44C — lower, 0.954
- C9G A59U — lower, 0.936
- C9G A59G — lower, 0.997
- C9G A42G — lower, 0.949
- C9G A42C — the same, 1.03
- C9G A42U — lower, 1.01
